Reference: the supplement of paper PMC9112550, “Optimization of the antimicrobial peptide Bac7 by deep mutational scanning” (BMC Biology, 2022)

Test system: Escherichia coli TOP10
Assay: shrunken log2 fold change of peptide-encoding DNA abundance (4.5 h post-induction vs induction); higher = less antimicrobial activity (less host growth inhibition)
Conditions: time post-induction: 4.5 h; library: site-saturation at positions 5, 18, 19, 20
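Note: peptides expressed intracellularly from a pBAD plasmid library in pooled LB shake-flask culture, induced with 0.3% L-arabinose, DNA abundance read by NGS, three biological replicates, DESeq2 with apeglm shrinkage.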

Sequence | shrunken log2 fold change
RRIRMRPPRLPRPRPRPGDLPRP | -0.0671
RRIRWRPPRLPRPRPRPSPDPRP | 0.236
RRIRWRPPRLPRPRPRPYEPPRP | -0.261
RRIRQRPPRLPRPRPRPAISPRP | -0.292
RRIRLRPPRLPRPRPRPSALPRP | -0.0136
RRIRHRPPRLPRPRPRPAPHPRP | 0.223
RRIRSRPPRLPRPRPRPRETPRP | 0.124
RRIRYRPPRLPRPRPRPFATPRP | -0.49
RRIRRRPPRLPRPRPRPNVHPRP | -0.203
RRIRSRPPRLPRPRPRPNVEPRP | 0.814
RRIRARPPRLPRPRPRPKLVPRP | 0.106
RRIRVRPPRLPRPRPRPEQTPRP | -0.0332
RRIRVRPPRLPRPRPRPGFCPRP | 0.352
RRIRERPPRLPRPRPRPDFVPRP | 0.105
RRIRHRPPRLPRPRPRPRRRPRP | 0.0874
RRIRHRPPRLPRPRPRPHPRPRP | 0.224
RRIRLRPPRLPRPRPRPIYMPRP | -0.199
RRIRTRPPRLPRPRPRPPTTPRP | 0.302
RRIRNRPPRLPRPRPRPVDNPRP | 0.104
RRIRTRPPRLPRPRPRPIQVPRP | -0.0152
RRIRGRPPRLPRPRPRPLFNPRP | 0.117
RRIRKRPPRLPRPRPRPIAAPRP | 0.317
RRIRQRPPRLPRPRPRPNGEPRP | 0.0404

Sequence | shrunken log2 fold change
RRIRVRPPRLPRPRPRPCCWPRP | -0.087
RRIRTRPPRLPRPRPRPPCTPRP | -0.0757
RRIRVRPPRLPRPRPRPNWRPRP | 0.4
RRIRCRPPRLPRPRPRPRFGPRP | 0.316
RRIRYRPPRLPRPRPRPRQEPRP | -0.0183
RRIRTRPPRLPRPRPRPCKLPRP | -0.858
RRIRHRPPRLPRPRPRPKWFPRP | -0.233
RRIRERPPRLPRPRPRPDFFPRP | -0.279
RRIRYRPPRLPRPRPRPHNLPRP | -0.131
RRIRFRPPRLPRPRPRPERKPRP | 0.0154
RRIRTRPPRLPRPRPRPCIMPRP | -0.2
RRIRARPPRLPRPRPRPFDYPRP | -0.245
RRIRERPPRLPRPRPRPSFGPRP | 0.189
RRIRIRPPRLPRPRPRPTFTPRP | -0.373
RRIRERPPRLPRPRPRPYTSPRP | -0.141
RRIRLRPPRLPRPRPRPVIKPRP | -0.111
RRIRNRPPRLPRPRPRPVGYPRP | 0.025
RRIRARPPRLPRPRPRPLDDPRP | 0.875
RRIRFRPPRLPRPRPRPDFCPRP | -0.0235
RRIRERPPRLPRPRPRPLGVPRP | -0.171
RRIRFRPPRLPRPRPRPCDGPRP | -0.0604
RRIRHRPPRLPRPRPRPAKWPRP | -0.0376
RRIRDRPPRLPRPRPRPYQIPRP | -0.238

Sequence | shrunken log2 fold change
RRIRIRPPRLPRPRPRPYQYPRP | -0.19
RRIRQRPPRLPRPRPRPYHAPRP | -0.052
RRIRCRPPRLPRPRPRPFQQPRP | -0.00107
RRIRYRPPRLPRPRPRPPMIPRP | -1.39
RRIRERPPRLPRPRPRPMFAPRP | 0.0495
RRIRHRPPRLPRPRPRPVFCPRP | -0.138
RRIRWRPPRLPRPRPRPQHFPRP | 0.418
RRIRCRPPRLPRPRPRPMWFPRP | -0.254
RRIRWRPPRLPRPRPRPLPFPRP | -0.387
RRIRFRPPRLPRPRPRPIKVPRP | -0.379
RRIRDRPPRLPRPRPRPLQEPRP | 0.223
RRIRIRPPRLPRPRPRPTFCPRP | -0.02
RRIRQRPPRLPRPRPRPMAVPRP | 0.00724
RRIRLRPPRLPRPRPRPFKNPRP | -0.499
RRIRLRPPRLPRPRPRPCHVPRP | -0.412
RRIRFRPPRLPRPRPRPKQHPRP | -0.176
RRIRIRPPRLPRPRPRPYTRPRP | -0.353
RRIRKRPPRLPRPRPRPRHFPRP | 0.0965
RRIRWRPPRLPRPRPRPGFHPRP | -0.0866
RRIRARPPRLPRPRPRPVVWPRP | 0.687
RRIRARPPRLPRPRPRPDVMPRP | 0.0669
RRIRNRPPRLPRPRPRPHWCPRP | 0.0251
RRIRTRPPRLPRPRPRPCVYPRP | -0.243

Sequence | shrunken log2 fold change
RRIRWRPPRLPRPRPRPFQHPRP | 0.0415
RRIRLRPPRLPRPRPRPCYIPRP | -0.115
RRIRARPPRLPRPRPRPRADPRP | 0.924
RRIRCRPPRLPRPRPRPCEMPRP | -0.151
RRIRGRPPRLPRPRPRPMPLPRP | 0.606
RRIRFRPPRLPRPRPRPKWMPRP | -0.235
RRIRLRPPRLPRPRPRPNWHPRP | -0.0136
RRIRHRPPRLPRPRPRPMRHPRP | -0.0546
RRIRLRPPRLPRPRPRPIVGPRP | 0.0604
RRIRSRPPRLPRPRPRPDHSPRP | -0.096
RRIRKRPPRLPRPRPRPQYKPRP | -0.343
RRIRLRPPRLPRPRPRPWKAPRP | -0.0344
RRIRDRPPRLPRPRPRPCDDPRP | 0.0345
RRIRKRPPRLPRPRPRPPPSPRP | 0.911
RRIRMRPPRLPRPRPRPKIYPRP | -0.107
RRIRARPPRLPRPRPRPPLEPRP | 0.583
RRIRERPPRLPRPRPRPMDVPRP | -0.0821
RRIRLRPPRLPRPRPRPTGHPRP | 0.0863
RRIRWRPPRLPRPRPRPNKCPRP | -0.109
RRIRDRPPRLPRPRPRPSTNPRP | -0.16
RRIRIRPPRLPRPRPRPCLYPRP | -0.248
RRIRIRPPRLPRPRPRPNQYPRP | -0.681
